Reference: patent US20050112552A1, “Identification and isolation of novel polypeptides having PDZ domains and methods of using same” (AxCell Biosciences Corporation, priority 2000, published 2005)
Read-outs that look alike come from different tables or passages of the source. Where no end group is shown, it is not given here.

Experiments:
PDZP2.3 = PDZP2.3 (Homo sapiens, UniProt Q96QZ7); conditions: GST fusion protein
Procedure: (§1) Assays that generate the data, e.g., that of FIGS. 5A and 5B, are conducted in the presence of various compounds that potentially effect the binding of the domains to respective recognition units.
(§2) To determine the ligand preferences of the novel PDZ domain-containing clones described in Section 6.1 the novel PDZ domains derived from PDZP2, PDZP3, KIAA-147, and the three PDZ domains of PSD-95 and Chapsyn were subcloned into glutathione S-transferase (GST) expression vectors and expressed as GST fusion proteins. We examined the peptide ligand binding preferences of all sixteen individual PDZ domains in an enzyme-linked immunosorbent assay-based cross-affinity map experiment. As mentioned above, 45 peptides were chosen from database searches and grouped into seven classes (G-protein coupled receptors, viral proteins, glutamate receptors, ion channels, Frizzled homologs, transporters and various other proteins). We tested the ability of these peptides to bind to the known and novel PDZ domains.
(§3) PCR fragments encoding individual PDZ domains were subcloned into the Sal1 and Notl sites of pGEX-4T-2 (Pharmacia Biotech, Inc.) and fusion proteins were expressed and purified as described by the manufacturer. ELISA based cross-affinity experiments were performed essentially as described by Sparks et al. (1996, Proc. Natl. Acad. Sci. USA 93:1540-1544) with the following modifications. Briefly, microtiter wells were coated with […] of fusion protein in 100 mM NaHCO3, blocked with SuperBlock TBS (Pierce) and washed four times with PBS, 0.05% Tween 20. Specific peptide-streptavidin/alkaline phosphatase complexes were added as above and unbound complexes washed five times with PBS, 0.05% Tween 20. Following addition of PNP substrate (p-nitrophenyl phosphate, Kirkegard & Perry Labs), peptide binding was quantitated after 30 min. at O.D. 405 nm. Relative binding measurements from three independent determinations were assigned to a scale as follows: O.D. units 0−0.5=(−), 0.5−1.0=(+), 1.0−2.0=(++), 2.0−3.0=(+++)>3.0=(++++). Peptide sequences used in cross-affinity experiments correspond to C-terminal segments of the following proteins: protein name (species: H=Human; M=Mouse; R=Rat; B=Bovine; V=Viral Origin, Genbank accession number); β1-adrenoreceptor (H, P18090); Serotonin Receptor (H, P28223); VIP Receptor (H, P32241); CRF Receptor (H, P34998); Orphan Receptor (H, P46089); β-1 Adrenergic Receptor (H, P08588); COM (ADE02, P03267); E6, HPV18 (V, P06463); UL25, HSV11 (V, P10209); GP3, EBV (V, P03200); TAT, HTL1A (V, P03409); UL14, VZVD (V, P09295); NMDA Receptor, NR2B (M, Q01097); NMDA Receptor subunit (H, U08266); mGluR1α (H, U31215); mGluR5a (H, D28538); mGluR (H, L76631); mGluR3 (H, AC002081); AMPA receptor (H, L20814); K^+-Channel, KV 1.4 (H, P22459); K^+-Channel Kir 2.2v (H, U53143); Na^+-Channel (a) (H, P15389); K^+-Channel (Kir) (H, D50582); Transmembrane Receptor (Homolog of frizzled ) (H, U43318); Homolog of frizzled (R, L02529); Homolog of frizzled (M, U43319); Glucose transporter (H, P11166); Excitatory Amino Acid Transporter (H, P43003); FAS Receptor (H, P25445); NGF Receptor (H, P08138); Neuropeptide Y Receptor, type 2 (H, P49146); Somatostatin Receptor, type 2 (H, P30874); CFTR (H, P13569); V-CAM (H, P19320); Ankyrin (H, Q01484); Fanconi anemia group C protein (H , Q00597); Calcium pump (H, P23634); APC protein (H, P25054); BCR, (H, P11274); MPK2 (H, P36507); Colorectal Mutant Cancer Protein (H, P23508); 65 KD Yes-Associated Protein (H, P46937); Neutrophil Cytosol Factor 1 (H, P14598); Neurexin III, (B, L27869); Neurexin II (B, L14855). Protein sequence homology searches were performed using BLAST (Altschul et al., 1990, J. Mol. Biol. 215:403-410).

PDZP2.1 = PDZP2.1 (Homo sapiens, UniProt Q96QZ7, D549G/L550P); conditions: GST fusion protein
Procedure: as §1, §2, §3

PDZP3.2 = PDZP3.2 (Homo sapiens, UniProt Q8NI35); conditions: GST fusion protein
Procedure: as §1, §2, §3

PDZP3.1 = PDZP3.1 (Homo sapiens, UniProt Q8NI35); conditions: GST fusion protein
Procedure: as §1, §2, §3

[1] = molecular target: first PDZ domain of PSD-95 (PSD-95-1) (Homo sapiens, UniProt P78352); conditions: for binding to the first PDZ domain of PSD-95: cross-affinity map, no test compound, in words; for PDZ domain-recognition unit interaction, PSD-95-1: GST fusion protein
Procedure: as §1, §2, §3

PDZP2.2 = PDZP2.2 (Homo sapiens, UniProt Q96QZ7); conditions: GST fusion protein
Procedure: as §1, §2, §3

PDZP2.4 = PDZP2.4 (Homo sapiens, UniProt Q96QZ7); conditions: GST fusion protein
Procedure: as §1, §2, §3

[2] = molecular target: second PDZ domain of Chapsyn (Homo sapiens, UniProt Q15700); conditions: cross-affinity map; in words
Text: as §2, §3

[3] = molecular target: third PDZ domain of PSD-95 (Homo sapiens, UniProt P78352, D348N); conditions: cross-affinity map; in words
Text: as §2, §3

[4] = molecular target: third PDZ domain of Chapsyn (Homo sapiens, UniProt Q15700); conditions: cross-affinity map; in words
Text: as §2, §3

[5] = molecular target: T1, second PDZ domain of PSD-95 (Homo sapiens, UniProt P78352); conditions: cross-affinity map, in words
Text: as §2, §3

[6] = molecular target: first PDZ domain of Chapsyn (Homo sapiens, UniProt Q15700, V177A); conditions: cross-affinity map; in words
Text: as §2, §3

[7] = molecular target: T1, second PDZ domain of PSD-95; parameters: PCR fragments encoding individual PDZ domains were subcloned; made in house; conditions: stated as known; cited from earlier work
[8] = molecular target: T2, interaction between the first PDZ domain in PSD-95 and the carboxy terminal peptide sequence of Na channel protein (Homo sapiens, UniProt P78352); test: Competitive inhibition analysis of PDZ domain-peptide ligand interaction; assay type: binding; conditions: GST-PSD-95.1 coated plates, biotinylated Na+ channel peptide (SEQ ID NO:51), various inhibitor concentrations, A405 nm
T2 construct: a GST-PSD-95.1 fusion protein of the first PDZ domain of PSD-95; made in house
Text: FIG. 19 presents a competitive inhibition analysis of the interaction between the first PDZ domain in PSD-95 and the carboxy terminal peptide sequence of Na channel protein. GST fusion protein containing the first PZD domain of PSD-95 was contacted with a recognition unit-peptide complex corresponding to the 12 carboxyl terminal amino acids of Na^+ channel protein (FIG. 5A, SEQ ID NO:51) and various concentrations of 1 of 3 different inhibitor peptide complexes. Binding of the dimer inhibitor peptide in the presence of streptavidin alkaline phosphatase/Biotin-Ser-Gly-Ser-Gly-Pro-Pro-Ser-Pro-Asp-Arg-Asp-Arg-Glu-Ser-Ile-Val-COOH (SEQ ID NO:157) is presented as a solid box. Binding of the recognition unit in the presence of a peptide corresponding to the 5 carboxy terminal residues of the Na^+ channel protein (SEQ ID NO:105) (hatched box), and in the presence of a scrambled version of this 5mer (SEQ ID NO:158) (open box), are also presented. Binding of the biotinylated peptide was quantitated at A405 nm. […]
An inhibition assay essentially as described in Section 5.4 was performed to assess the ability of PDZ ligands to uncouple NOS from the NMDA receptor. […] Particularly, biotinylated peptide and various concentrations of an inhibitor were added to microtiter plates coated with the GST-PSD-95.1 fusion protein and the binding interactions were quantified as described above. […]

[9] = listed as NMDA receptor NR2 subunit

Chain of PDZP3.2 (Q8NI35 1530-1614 limits assumed): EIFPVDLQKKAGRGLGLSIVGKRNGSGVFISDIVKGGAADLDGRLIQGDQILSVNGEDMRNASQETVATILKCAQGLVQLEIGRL
Chain of PDZP2.4 (Q96QZ7 with tags, fused parts or gaps isoform Q96QZ7-2 limits assumed): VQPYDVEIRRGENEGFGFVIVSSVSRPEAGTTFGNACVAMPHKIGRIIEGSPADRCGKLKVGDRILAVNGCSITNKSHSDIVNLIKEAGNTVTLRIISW
Chain of PDZP2.2 (Q96QZ7 639-720 limits assumed): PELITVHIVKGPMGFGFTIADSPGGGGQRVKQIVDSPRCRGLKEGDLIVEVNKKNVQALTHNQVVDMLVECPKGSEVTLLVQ
Chain of PDZP3.1 (Q8NI35 1433-1519 limits assumed): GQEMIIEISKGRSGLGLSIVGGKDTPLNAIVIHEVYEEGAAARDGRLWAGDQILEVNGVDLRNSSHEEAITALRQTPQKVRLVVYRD
Chain of PDZP2.3 (Q96QZ7 837-922 limits assumed): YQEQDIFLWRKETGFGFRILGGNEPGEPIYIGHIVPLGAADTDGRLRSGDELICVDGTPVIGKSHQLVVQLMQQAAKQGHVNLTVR
Chain of PDZP2.1 (Q96QZ7 468-553 D549G/L550P limits assumed): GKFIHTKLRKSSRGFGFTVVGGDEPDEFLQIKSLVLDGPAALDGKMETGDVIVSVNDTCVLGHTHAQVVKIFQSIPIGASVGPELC

SEQ ID NO. 42: biotinylated peptide, 12 carboxy terminal amino acids of NMDA (NR2B), mouse (VYEKLSSIESDV; not fully specified; also: biotinylated, position not given here)
PDZ domain-recognition unit interaction, PDZ2.3 (PDZP2.3; in the presence of Compound A): + (0.5−1.0=(+)) | PDZ domain-recognition unit interaction, PDZ2.3 (PDZP2.3; in the presence of Compound B): ++++ (>3.0=(++++)) | PDZ domain-recognition unit interaction, PDZ2.3 (PDZP2.3; in the presence of Compound C): + (0.5−1.0=(+)) | PDZ domain-recognition unit interaction, PDZP2.1 (PDZP2.1; in the presence of Compound A): + (0.5−1.0=(+)) | PDZ domain-recognition unit interaction, PDZP2.1 (PDZP2.1; in the presence of Compound B): ++++ (>3.0=(++++)) | PDZ domain-recognition unit interaction, PDZP2.1 (PDZP2.1; in the presence of Compound C): + (0.5−1.0=(+)) | PDZ domain-recognition unit interaction, PDZ3.2 (PDZP3.2; in the presence of Compound A): − (O.D. units 0−0.5=(−)) | PDZ domain-recognition unit interaction, PDZ3.2 (PDZP3.2; in the presence of Compound B): − (O.D. units 0−0.5=(−)) | PDZ domain-recognition unit interaction, PDZ3.2 (PDZP3.2; in the presence of Compound C): − (O.D. units 0−0.5=(−)) | PDZ domain-recognition unit interaction, PDZ3.1 (PDZP3.1; in the presence of Compound A): + (0.5−1.0=(+)) | PDZ domain-recognition unit interaction, PDZ3.1 (PDZP3.1; in the presence of Compound B): ++++ (>3.0=(++++)) | PDZ domain-recognition unit interaction, PDZ3.1 (PDZP3.1; in the presence of Compound C): ++++ (>3.0=(++++)) | binding to the first PDZ domain of PSD-95 [1]: positive interaction | binding to the first PDZ domain of PSD-95 [1, 9]: bind to the first and second PDZ domain | PDZ domain-recognition unit interaction, PSD-95-1 ([1]; in the presence of Compound A): − (O.D. units 0−0.5=(−)) | PDZ domain-recognition unit interaction, PSD-95-1 ([1]; in the presence of Compound B): +++ (2.0−3.0=(+++)) | PDZ domain-recognition unit interaction, PSD-95-1 ([1]; in the presence of Compound C): +++ (2.0−3.0=(+++)) | PDZ domain-recognition unit interaction, PDZ2.2 (PDZP2.2; in the presence of Compound A): + (0.5−1.0=(+)) | PDZ domain-recognition unit interaction, PDZ2.2 (PDZP2.2; in the presence of Compound B): +++ (2.0−3.0=(+++)) | PDZ domain-recognition unit interaction, PDZ2.2 (PDZP2.2; in the presence of Compound C): + (0.5−1.0=(+)) | PDZ domain-recognition unit interaction, PDZ2.4 (PDZP2.4; in the presence of Compound A): + (0.5−1.0=(+)) | PDZ domain-recognition unit interaction, PDZ2.4 (PDZP2.4; in the presence of Compound B): ++++ (>3.0=(++++)) | PDZ domain-recognition unit interaction, PDZ2.4 (PDZP2.4; in the presence of Compound C): + (0.5−1.0=(+)) | binding to the second PDZ domain of Chapsyn [2]: same binding specificities | binding to the third PDZ domain of PSD-95 [3]: not the third PDZ domain | binding to the third PDZ domain of Chapsyn [4]: same binding specificities | binding to the second PDZ domain of PSD-95 [5]: positive interaction | binding to the second PDZ domain of PSD-95 [5, 9]: bind to the first and second PDZ domain | binding to the first PDZ domain of Chapsyn [6]: same binding specificities | binding to the second PDZ domain of PSD-95 [7]: binds

AC-Cys-Pro-Pro-Ser-Pro-Asp-Arg-Asp-Arg-Glu-Ser-Ile-Val-COOH (Ac-CPPSPDRDRESIV-OH) [dimer inhibitor]
inhibition of the interaction of the PDZ domain and ligand [8]: able to inhibit

Arg-Glu-Ser-Ile-Val-COOH (RESIV-OH) [5mer containing the carboxy terminal 5 residues of the Na+ channel peptide]
inhibition of the interaction of the PDZ domain and ligand [8]: to a lesser extent
